Measurements published in patent US20100015126A1, “Methods of Binding of Cross-Beta Structures By Chaperones” (priority 2006, published 2010).

Columns and labels:
[1] = Transmission electron microscopy (TEM); assay type: physicochemical; conditions: 2.5 mg/ml peptide stocks
Experimental: Transmission Electron Microscopy (TEM)
TEM images were collected using a Jeol 1200 EX transmission electron microscope (Jeol Ltd., Tokyo, Japan) at an excitation voltage of 80 kV. For each sample, the formvar and carbon-coated side of a 100-mesh copper or nickel grid was positioned on a 5 μl drop of protein solution for 5 minutes. Afterwards, it was positioned on a 100 μl drop of PBS for 2 minutes, followed by three 2-minute incubations with a 100 μl drop of distilled water. The grids were then stained for 2 minutes with a 100 μl drop of 2% (m/v) methylcellulose with 0.4% uranyl acetate pH 4. Excess fluid was removed by streaking the side of the grids over filter paper, and the grids were subsequently dried under a lamp. Samples were analysed at a magnification of 10K.

human BiP [2] = target: T1, human BiP (Homo sapiens, UniProt P11021); assay: ELISA: binding of BiP-FLAG-His to immobilized (misfolded) protein ligands; conditions: ligands coated at 5 μg/ml; 6BB peptides and oxLDL 50 μg/ml
T1 construct: The human BiP gene except the signal peptide encoding region was obtained from Geneart (Germany); linker […]; made in house; host or cells: HEK 293E cells, transient transfection, PABC674 vector; secreted into the medium
Experimental: Enzyme Linked Immunosorbent Assay for Testing of Chaperone Binding to Misfolded Proteins
(§1) Binding of chaperones to immobilized (misfolded) protein ligands was determined using an enzyme linked immuno sorbent assay (ELISA) approach. For this purpose 50 μl/well of potential ligands at indicated concentrations or coat buffer only for control and background measurement purposes, were coated overnight at 4° C. or coated for 1 h at room temperature, with motion, in 50 mM NaHCO3 pH 9.6 (coat buffer). In general, ligands were coated at 5 μg/ml, unless stated otherwise. For example, BiP binding peptides 6BB# and oxLDL were coated at 50 μg/ml. Native haemoglobin (Sigma-Aldrich, H7379), albumin, IgIV Gammagard and ovalbumin controls were prepared from lyophilized stocks. The controls were prepared by dissolving lyophilized proteins at 1 mg/ml in PBS upon resuspending by pipetting, followed by a 30 minutes period at the roller device, at room temperature. The protein solutions were centrifuged for 10 minutes at 16,000*g and diluted in coat buffer. After coating the plates were washed at least three times with 50 mM Tris-HCl pH 7.3, 150 mM NaCl, 0.1% v/v Tween20, and blocked with Blocking reagent (Roche Diagnostics, Almere, The Netherlands; 11112589001), for 1 h at room temperature, with motion. Plates were washed three times and incubated in triplicate with indicated chaperone dilution series, at 50 μl/well, for 1 h at room temperature, with constant motion. For HSP90, 5 mM DTT is incorporated in the binding buffer (PBS/0.1% Tween20) to avoid unwanted disulfide bond formation of the HSP90. Plates were washed three times and incubated with anti-FLAG antibody (mouse antibody, M2, peroxidase conjugate; Sigma, A-8592) for BiP-FLAG-His, anti-His-tag antibody (Mouse Monoclonal Antibody, Cat. No. 70796, Novagen [0.2 mg/ml]) for HSP60, a 1:1 mix of 500-fold diluted anti-HSP90beta antibodies (Stressgen, SPA-643 [mouse monoclonal IgM], SPA-646 [rabbit polyclonal]) for HSP90 and an anti-DnaK antibody (Stressgen, 023SPA-880D [mouse monoclonal antibody]) for DnaK. After four wash cycles, secondary antibodies were added to the wells when required, 50 μl/well, for 45′ at room temperature, with motion. RAMPO and SWARPO were used at 3000 times dilution. […] In a second experiment with more immobilized misfolded proteins and controls, the detection of bound HSP90 with the mix of two anti-HSP90 antibodies was achieved by mixing 1:1500 SWARPO with 1:3000 RAMPO. After 5 washes with wash buffer followed by two washes with PBS, binding of antibodies was assessed. Bound anti-FLAG-PO, peroxidase-conjugated rabbit anti-mouse immunoglobulins (RAMPO, P0260, DAKOCytomation, Glostrup, Denmark) or peroxidase-coupled swine anti-rabbit immunoglobulins (SWARPO, P0217, DAKOCytomation) was visualized with tetramethylbenzidine (TMB, #45.01.20,/#45.014.01, Biosource, Nivelles, Belgium). The reaction was stopped after 5 minutes with 1% H2SO4 in H2O. Plates were read at 450 nm. Triplicates were averaged and standard deviations calculated. Background signals obtained with buffer-coated wells were subtracted (binding of primary antibody to empty wells), as well as background signals obtained with ligand-coated wells in which the chaperones were omitted (binding of primary and secondary antibody to coated ligands). Subsequently, sub-optimal concentrations of chaperones for binding to misfolded protein ligands are determined, and these concentrations are used for inhibition studies. […] We have previously identified that a sub-fraction of IgIV molecules has affinity for misfolded proteins comprising crossbeta structure (pending patent application). Moreover, we identified that the sub-fraction of IgIV molecules directly binds to crossbeta structure and/or crossbeta structure induced conformation (not shown; pending patent application). […]

human BiP [3] = target: T1, human BiP; assay: Competition ELISA: BiP binding to misfolded proteins under influence of crossbeta binding compounds; conditions: fixed sub-optimal BiP concentration
Experimental: Binding of chaperones to immobilized (misfolded) protein ligands was determined using an enzyme linked immuno sorbent assay (ELISA) approach. For this purpose 50 μl/well of potential ligands at indicated concentrations or coat buffer only for control and background measurement purposes, were coated overnight at 4° C. or coated for 1 h at room temperature, with motion, in 50 mM NaHCO3 pH 9.6 (coat buffer). In general, ligands were coated at 5 μg/ml, unless stated otherwise. For example, BiP binding peptides 6BB# and oxLDL were coated at 50 μg/ml. Native haemoglobin (Sigma-Aldrich, H7379), albumin, IgIV Gammagard and ovalbumin controls were prepared from lyophilized stocks. The controls were prepared by dissolving lyophilized proteins at 1 mg/ml in PBS upon resuspending by pipetting, followed by a 30 minutes period at the roller device, at room temperature. The protein solutions were centrifuged for 10 minutes at 16,000*g and diluted in coat buffer. After coating the plates were washed at least three times with 50 mM Tris-HCl pH 7.3, 150 mM NaCl, 0.1% v/v Tween20, and blocked with Blocking reagent (Roche Diagnostics, Almere, The Netherlands; 11112589001), for 1 h at room temperature, with motion. Plates were washed three times and incubated in triplicate with indicated chaperone dilution series, at 50 μl/well, for 1 h at room temperature, with constant motion. For HSP90, 5 mM DTT is incorporated in the binding buffer (PBS/0.1% Tween20) to avoid unwanted disulfide bond formation of the HSP90. […] After four wash cycles, secondary antibodies were added to the wells when required, 50 μl/well, for 45′ at room temperature, with motion. RAMPO and SWARPO were used at 3000 times dilution. […] In a second experiment with more immobilized misfolded proteins and controls, the detection of bound HSP90 with the mix of two anti-HSP90 antibodies was achieved by mixing 1:1500 SWARPO with 1:3000 RAMPO. After 5 washes with wash buffer followed by two washes with PBS, binding of antibodies was assessed. Bound anti-FLAG-PO, peroxidase-conjugated rabbit anti-mouse immunoglobulins (RAMPO, P0260, DAKOCytomation, Glostrup, Denmark) or peroxidase-coupled swine anti-rabbit immunoglobulins (SWARPO, P0217, DAKOCytomation) was visualized with tetramethylbenzidine (TMB, #45.01.20,/#45.014.01, Biosource, Nivelles, Belgium). The reaction was stopped after 5 minutes with 1% H2SO4 in H2O. Plates were read at 450 nm. Triplicates were averaged and standard deviations calculated. Background signals obtained with buffer-coated wells were subtracted (binding of primary antibody to empty wells), as well as background signals obtained with ligand-coated wells in which the chaperones were omitted (binding of primary and secondary antibody to coated ligands). Subsequently, sub-optimal concentrations of chaperones for binding to misfolded protein ligands are determined, and these concentrations are used for inhibition studies.
In a subsequent study we analysed whether BiP interacts directly with the crossbeta structure, by performing ELISA binding studies with a fixed sub-optimal concentration of BiP and concentration series of crossbeta binding compounds. The results are depicted in FIGS. 12, 13 and Table 7. Binding of BiP without added crossbeta binding compounds was set to 100%.

[4] = target: T2, Escherichia coli HSP70 family member DnaK (Escherichia coli, UniProt P0A6Y8); assay: ELISA: binding of DnaK to immobilized (misfolded) protein ligands
T2 construct: purchased Stressgen (Ann Arbor, Mich., USA) SPP-630
Experimental: Recombinant Escherichia coli (E. coli) DnaK was purchased from Stressgen (Ann Arbor, Mich., USA; SPP-630). For the binding studies first lot B502468 (100 μg, lot A) and then lot 05240609 (200 μg, lot B) was used.
as §1

[5] = target: T3, human mitochondrial HSP60 (Homo sapiens, UniProt P10809); assay: ELISA: binding of HSP60 to immobilized (misfolded) protein ligands
T3 construct: Dr. W. van Eden, Utrecht University; host or cells: E. coli
Experimental: Recombinant human HSP60 with N-terminal His-tag was a kind gift of Dr. R. van der Zee and Prof. Dr. W. van Eden (Institute of Infectious Diseases and Immunology, Faculty of Veterinary Medicine, Utrecht University, Utrecht, The Netherlands), and was supplied in lyophilized form. The HSP60 was produced in E. coli and purified using Nickel-Sepharose. The HSP60 was lyophilized from 20-40 mM ammonium-bicarbonate solution, after purification, and stored at −20° C. The construct lacks the mitochondrial signal sequence. […] Before use, the lyophilized protein is dissolved at room temperature at 1 mg/ml in 20-40 mM NH4HCO3, resulting in a pH of 7.0. Aliquots are stored at −20° C. or −80° C. The mitochondrial HSP60 is a functional dimer of heptamers (MW(HSP60 monomer)=˜58 kDa), and is involved in multimer protein assembling and aids in transport of unfolded proteins across membranes. For the binding studies, at two occasions separate HSP60 solutions were prepared originating from the same batch of purified protein, lyophilized in separate Eppendorf cups.
Binding of chaperones to immobilized (misfolded) protein ligands was determined using an enzyme linked immuno sorbent assay (ELISA) approach. For this purpose 50 μl/well of potential ligands at indicated concentrations or coat buffer only for control and background measurement purposes, were coated overnight at 4° C. or coated for 1 h at room temperature, with motion, in 50 mM NaHCO3 pH 9.6 (coat buffer). In general, ligands were coated at 5 μg/ml, unless stated otherwise. For example, BiP binding peptides 6BB# and oxLDL were coated at 50 μg/ml. Native haemoglobin (Sigma-Aldrich, H7379), albumin, IgIV Gammagard and ovalbumin controls were prepared from lyophilized stocks. The controls were prepared by dissolving lyophilized proteins at 1 mg/ml in PBS upon resuspending by pipetting, followed by a 30 minutes period at the roller device, at room temperature. The protein solutions were centrifuged for 10 minutes at 16,000*g and diluted in coat buffer. After coating the plates were washed at least three times with 50 mM Tris-HCl pH 7.3, 150 mM NaCl, 0.1% v/v Tween20, and blocked with Blocking reagent (Roche Diagnostics, Almere, The Netherlands; 11112589001), for 1 h at room temperature, with motion. Plates were washed three times and incubated in triplicate with indicated chaperone dilution series, at 50 μl/well, for 1 h at room temperature, with constant motion. For HSP90, 5 mM DTT is incorporated in the binding buffer (PBS/0.1% Tween20) to avoid unwanted disulfide bond formation of the HSP90. Plates were washed three times and incubated with anti-FLAG antibody (mouse antibody, M2, peroxidase conjugate; Sigma, A-8592) for BiP-FLAG-His, anti-His-tag antibody (Mouse Monoclonal Antibody, Cat. No. 70796, Novagen [0.2 mg/ml]) for HSP60, a 1:1 mix of 500-fold diluted anti-HSP90beta antibodies (Stressgen, SPA-643 [mouse monoclonal IgM], SPA-646 [rabbit polyclonal]) for HSP90 and an anti-DnaK antibody (Stressgen, 023SPA-880D [mouse monoclonal antibody]) for DnaK. After four wash cycles, secondary antibodies were added to the wells when required, 50 μl/well, for 45′ at room temperature, with motion. RAMPO and SWARPO were used at 3000 times dilution. […] In a second experiment with more immobilized misfolded proteins and controls, the detection of bound HSP90 with the mix of two anti-HSP90 antibodies was achieved by mixing 1:1500 SWARPO with 1:3000 RAMPO. After 5 washes with wash buffer followed by two washes with PBS, binding of antibodies was assessed. Bound anti-FLAG-PO, peroxidase-conjugated rabbit anti-mouse immunoglobulins (RAMPO, P0260, DAKOCytomation, Glostrup, Denmark) or peroxidase-coupled swine anti-rabbit immunoglobulins (SWARPO, P0217, DAKOCytomation) was visualized with tetramethylbenzidine (TMB, #45.01.20,/#45.014.01, Biosource, Nivelles, Belgium). The reaction was stopped after 5 minutes with 1% H2SO4 in H2O. Plates were read at 450 nm. […]

T1 sequence (P11021 19-654): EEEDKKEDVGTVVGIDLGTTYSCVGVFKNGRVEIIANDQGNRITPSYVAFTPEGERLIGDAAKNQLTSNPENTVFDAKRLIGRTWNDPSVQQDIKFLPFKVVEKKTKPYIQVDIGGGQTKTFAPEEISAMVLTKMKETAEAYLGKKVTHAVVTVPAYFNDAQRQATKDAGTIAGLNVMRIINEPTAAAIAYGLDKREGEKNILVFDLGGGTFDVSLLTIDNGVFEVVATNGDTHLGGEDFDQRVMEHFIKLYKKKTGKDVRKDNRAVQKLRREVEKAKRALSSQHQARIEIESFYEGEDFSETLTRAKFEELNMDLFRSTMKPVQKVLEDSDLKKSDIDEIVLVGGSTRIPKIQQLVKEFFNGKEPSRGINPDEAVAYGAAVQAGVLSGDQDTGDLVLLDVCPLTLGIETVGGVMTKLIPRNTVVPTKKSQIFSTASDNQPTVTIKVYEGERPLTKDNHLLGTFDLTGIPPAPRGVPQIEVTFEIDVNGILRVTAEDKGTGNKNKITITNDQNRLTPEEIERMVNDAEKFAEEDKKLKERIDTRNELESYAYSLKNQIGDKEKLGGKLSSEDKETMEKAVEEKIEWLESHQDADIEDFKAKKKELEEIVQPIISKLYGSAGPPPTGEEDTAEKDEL
T2 sequence (P0A6Y8 whole entry): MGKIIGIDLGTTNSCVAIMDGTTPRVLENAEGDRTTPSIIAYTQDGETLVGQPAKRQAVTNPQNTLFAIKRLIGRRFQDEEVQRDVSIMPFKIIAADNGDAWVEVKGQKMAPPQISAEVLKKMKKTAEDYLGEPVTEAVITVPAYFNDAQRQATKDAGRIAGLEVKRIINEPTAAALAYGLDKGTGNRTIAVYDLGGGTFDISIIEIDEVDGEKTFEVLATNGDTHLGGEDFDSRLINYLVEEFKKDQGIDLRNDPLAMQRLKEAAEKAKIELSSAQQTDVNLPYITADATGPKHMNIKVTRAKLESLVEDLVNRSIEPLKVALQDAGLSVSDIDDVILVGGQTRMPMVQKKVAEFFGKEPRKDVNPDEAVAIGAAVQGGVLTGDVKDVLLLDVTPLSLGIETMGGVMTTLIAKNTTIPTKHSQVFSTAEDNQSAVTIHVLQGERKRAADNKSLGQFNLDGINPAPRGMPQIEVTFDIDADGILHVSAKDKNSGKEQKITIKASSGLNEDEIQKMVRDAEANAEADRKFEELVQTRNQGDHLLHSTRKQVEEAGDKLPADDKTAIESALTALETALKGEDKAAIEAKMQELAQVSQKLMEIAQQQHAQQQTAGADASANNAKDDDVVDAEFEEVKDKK
T3 sequence (P10809 27-573): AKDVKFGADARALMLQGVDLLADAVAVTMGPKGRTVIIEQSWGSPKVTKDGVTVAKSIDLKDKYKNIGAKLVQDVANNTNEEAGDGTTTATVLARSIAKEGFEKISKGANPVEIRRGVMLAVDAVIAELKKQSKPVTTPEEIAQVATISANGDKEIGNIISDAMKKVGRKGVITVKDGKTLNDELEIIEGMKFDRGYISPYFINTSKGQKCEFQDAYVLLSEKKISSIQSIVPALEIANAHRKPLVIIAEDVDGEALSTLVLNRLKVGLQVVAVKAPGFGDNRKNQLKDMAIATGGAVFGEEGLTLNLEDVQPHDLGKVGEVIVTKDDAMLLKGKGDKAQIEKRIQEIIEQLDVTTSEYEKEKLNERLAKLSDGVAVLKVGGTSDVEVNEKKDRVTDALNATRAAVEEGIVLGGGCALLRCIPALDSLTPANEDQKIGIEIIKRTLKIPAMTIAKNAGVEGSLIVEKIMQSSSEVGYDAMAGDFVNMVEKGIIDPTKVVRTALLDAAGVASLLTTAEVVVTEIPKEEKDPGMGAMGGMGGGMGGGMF

| Substance | TEM [1] | Binding of concentration series of BiP to coated ligand (human BiP [2]) | Influence of Congo red on interaction of BiP with misfolded protein (human BiP [3]; concentration series of Congo red) | Influence of ThS on interaction of BiP with misfolded protein (human BiP [3]; concentration series of ThS) | Influence of ThT on interaction of BiP with misfolded protein (human BiP [3]; concentration series of ThT) | Binding of concentration series of DnaK to coated ligand [4] | Binding of concentration series of HSP60 to coated ligand [5] |
| --- | --- | --- | --- | --- | --- | --- | --- |
| HWDFAWPW [6BB10] | Nothing visible^† | has been established | ↓ (a ↓ sign refers to inhibited abolished binding of BiP) | ↓ (a ↓ sign refers to inhibited abolished binding of BiP) | ↓ (a ↓ sign refers to inhibited abolished binding of BiP) | did not bind |  |
| fibrin: fibrin immobilized in wells from fibrinogen and factor IIa |  | has been established |  |  |  | has been established | has been established |
